One substance from publication PMC11048174 can be followed below.

Experiment [1] addresses Avidin (obtained from egg white) (UniProt P02701). Nature of the experiment: electrochemical impedance spectroscopy; MWCNT-Av on glassy carbon electrode, incubated with bLOx or LOx; charge transfer resistance of hydroquinone/benzoquinone at 0.050 V, 0.050 M phosphate buffer pH 7.40.
The target is the same in experiment [2]. Nature of the experiment: SPR; MWCNT-Av deposited on a gold disk; 0.50 mg mL^-1 bLOx or LOx injected manually, batch conditions, 25 °C; amount from the change of the resonance angle after washing with phosphate buffer. Background: In SPR one partner is held on a chip, and binding of the other changes the refractive index at the surface.

UniProt P02701, sequence (P02701 25-152): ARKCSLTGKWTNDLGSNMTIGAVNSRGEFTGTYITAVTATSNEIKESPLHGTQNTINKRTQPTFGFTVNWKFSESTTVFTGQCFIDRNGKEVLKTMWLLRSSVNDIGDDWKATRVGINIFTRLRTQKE

For the substance “recombinant biotinylated lactate oxidase (enzyme)”, in experiment [1], the RCT (charge transfer resistance) after interaction is 200 Ω. In experiment [2], this substance had an amount immobilised (from the SPR angle change) of 2600 pg mm^−2.
